Values of other authors as cited in paper PMC2706832.

Legend:
CCL7 (Homo sapiens) = CCL7 (Homo sapiens) (UniProt P80098)
[1] = target: CCL14 9-74 (Homo sapiens) (UniProt Q16627); assay: competition with CCL5
CCL14 9-74 (Homo sapiens), sequence (Q16627 9-74): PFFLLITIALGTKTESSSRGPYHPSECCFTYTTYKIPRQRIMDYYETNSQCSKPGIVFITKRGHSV

CCR1, sequence (P32246 whole entry): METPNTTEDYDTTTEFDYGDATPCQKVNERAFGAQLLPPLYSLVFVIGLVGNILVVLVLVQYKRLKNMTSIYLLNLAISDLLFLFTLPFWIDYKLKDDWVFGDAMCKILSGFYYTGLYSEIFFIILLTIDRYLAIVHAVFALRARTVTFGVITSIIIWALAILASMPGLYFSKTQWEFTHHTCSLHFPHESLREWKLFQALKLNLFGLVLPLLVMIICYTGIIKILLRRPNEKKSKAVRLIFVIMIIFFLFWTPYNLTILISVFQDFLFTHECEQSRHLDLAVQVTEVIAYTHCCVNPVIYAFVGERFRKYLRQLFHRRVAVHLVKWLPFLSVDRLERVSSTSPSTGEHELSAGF
CCL7 (Homo sapiens), sequence (P80098 24-99): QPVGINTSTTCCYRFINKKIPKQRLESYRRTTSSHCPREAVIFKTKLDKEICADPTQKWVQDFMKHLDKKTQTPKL

Q: Which Kd (CCL7 (Homo sapiens)) does the source give for CCR1 (from UniProt P32246) here?
A: Its Kd is 1000 pM.

Q: And the Ki [1]?
A: The Ki was 23 pM.
